Data set [1] deals with the molecule itself. The data set can be described thus: cross-linking; Raji or Ramos cells cultured with SK053 (10 uM, or indicated concentrations for 24 h) or SK-bio (55 uM, time course); lysates resolved under denaturing and reducing conditions, immunoblot with PRDX-specific antibodies; monomer ~22 kDa, dimer ~44 kDa.
Data set [2] concerns the molecule itself. The data set can be described thus: cross-linking; HEK293T cells transfected with pLenti6-PRDX1-V5 (WT or Cys-to-Ala variants), 24 h later 41 uM SK053 or DMSO for 24 h; immunoblot with anti-V5 and anti-PRDX1.
Data set [3] concerns the molecule itself. The data set can be described thus: cross-linking; recombinant human PRDX1 incubated with SK-bio in vitro (Supplementary Figure S7); dimer formation less efficient than in cells.

B1: peroxiredoxin 2 (PRDX2), endogenous in Burkitt lymphoma cells (enzyme, human (endogenous in Raji and Ramos), UniProt P32119 1-198, looked up)
chain: MASGNARIGKPAPDFKATAVVDGAFKEVKLSDYKGKYVVLFFYPLDFTFVCPTEIIAFSNRAEDFRKLGCEVLGVSVDSQFTHLAWINTPRKEGGLGPLNIPLLADVTRRLSEDYGVLKTDEGIAYRGLFIIDGKGVLRQITVNDLPVGRSVDEALRLVQAFQYTDEHGEVCPAGWKPGSDTIKPNVDDSKEYFSKHN
notes: peroxiredoxin 2, human, endogenous in Raji and Ramos cells; source: endogenous, Raji and Ramos cells
For the protein B1, the stoichiometry N (commonly a count of units in the complex or per binding partner) in data set [1] came out at 2.

B2: peroxiredoxin 1 (PRDX1), endogenous in Burkitt lymphoma cells (enzyme, human (endogenous in Raji and Ramos), UniProt Q06830 1-199, looked up)
chain: MSSGNAKIGHPAPNFKATAVMPDGQFKDISLSDYKGKYVVFFFYPLDFTFVCPTEIIAFSDRAEEFKKLNCQVIGASVDSHFCHLAWVNTPKKQGGLGPMNIPLVSDPKRTIAQDYGVLKADEGISFRGLFIIDDKGILRQITVNDLPVGRSVDETLRLVQAFQFTDKHGEVCPAGWKPGSDTIKPDVQKSKEYFSKQK
notes: peroxiredoxin 1, human, endogenous in Raji and Ramos Burkitt lymphoma cells; source: endogenous, Raji and Ramos cells
Take B2: the “stoichiometry N” value in data set [1] was determined as 2.

B3: V5-tagged human wild-type PRDX1 (enzyme, UniProt Q06830 1-199, looked up)
chain: MSSGNAKIGHPAPNFKATAVMPDGQFKDISLSDYKGKYVVFFFYPLDFTFVCPTEIIAFSDRAEEFKKLNCQVIGASVDSHFCHLAWVNTPKKQGGLGPMNIPLVSDPKRTIAQDYGVLKADEGISFRGLFIIDDKGILRQITVNDLPVGRSVDETLRLVQAFQFTDKHGEVCPAGWKPGSDTIKPDVQKSKEYFSKQK
notes: peroxiredoxin 1, human, wild type, expressed from pLenti6/V5-DEST-PRDX1; The vector pLenti6/V5-DEST usually adds the V5 tag at the C-terminus (surmised; the plasmid is printed as PRDX1-V5); also called PRDX1-V5; WT; source: HEK293T, transfected (pLenti6-PRDX1-V5), in cells
In the case of B3, the “stoichiometry N” value in data set [2] worked out at 2.

B4: recombinant human PRDX1 (enzyme, UniProt Q06830 1-199, looked up)
chain: MSSGNAKIGHPAPNFKATAVMPDGQFKDISLSDYKGKYVVFFFYPLDFTFVCPTEIIAFSDRAEEFKKLNCQVIGASVDSHFCHLAWVNTPKKQGGLGPMNIPLVSDPKRTIAQDYGVLKADEGISFRGLFIIDDKGILRQITVNDLPVGRSVDETLRLVQAFQFTDKHGEVCPAGWKPGSDTIKPDVQKSKEYFSKQK
notes: peroxiredoxin 1, human, recombinant
For the protein B4, the “stoichiometry N” value in data set [3] came out at 2.

B5: native untagged PRDX1, endogenous in HEK293T cells (enzyme, human (endogenous in HEK293T), UniProt Q06830 1-199, looked up)
chain: MSSGNAKIGHPAPNFKATAVMPDGQFKDISLSDYKGKYVVFFFYPLDFTFVCPTEIIAFSDRAEEFKKLNCQVIGASVDSHFCHLAWVNTPKKQGGLGPMNIPLVSDPKRTIAQDYGVLKADEGISFRGLFIIDDKGILRQITVNDLPVGRSVDETLRLVQAFQFTDKHGEVCPAGWKPGSDTIKPDVQKSKEYFSKQK
notes: peroxiredoxin 1, human, endogenous untagged protein of HEK293T cells; also called native untagged form; source: endogenous, HEK293T cells
Turning to B5, the “stoichiometry N” value in data set [2] amounted to 2.

B6: V5-tagged human PRDX1 C83A (enzyme, UniProt Q06830 1-199, looked up)
chain: MSSGNAKIGHPAPNFKATAVMPDGQFKDISLSDYKGKYVVFFFYPLDFTFVCPTEIIAFSDRAEEFKKLNCQVIGASVDSHFAHLAWVNTPKKQGGLGPMNIPLVSDPKRTIAQDYGVLKADEGISFRGLFIIDDKGILRQITVNDLPVGRSVDETLRLVQAFQFTDKHGEVCPAGWKPGSDTIKPDVQKSKEYFSKQK
notes: peroxiredoxin 1, human, Cys83 (outside the active site) changed to Ala; The vector pLenti6/V5-DEST usually adds the V5 tag at the C-terminus (surmised); source: HEK293T, transfected (pLenti6-PRDX1-V5), in cells
Consider B6, for which, in data set [2], the “stoichiometry N” value is 2.

B7: peroxiredoxin 4 (PRDX4), endogenous in Burkitt lymphoma cells (enzyme, human (endogenous in Raji and Ramos), UniProt Q13162 38-271, looked up)
chain: WETEERPRTREEECHFYAGGQVYPGEASRVSVADHSLHLSKAKISKPAPYWEGTAVIDGEFKELKLTDYRGKYLVFFFYPLDFTFVCPTEIIAFGDRLEEFRSINTEVVACSVDSQFTHLAWINTPRRQGGLGPIRIPLLSDLTHQISKDYGVYLEDSGHTLRGLFIIDDKGILRQITLNDLPVGRSVDETLRLVQAFQYTDKHGEVCPAGWKPGSETIIPDPAGKLKYFDKLN
notes: peroxiredoxin 4, human, endogenous in Raji and Ramos cells; source: endogenous, Raji and Ramos cells
For B7, the “stoichiometry N” value in data set [1] was 2.

B8: peroxiredoxin 3 (PRDX3), endogenous in Burkitt lymphoma cells (enzyme, human (endogenous in Raji and Ramos), UniProt P30048 62-256, looked up)
chain: APAVTQHAPYFKGTAVVNGEFKDLSLDDFKGKYLVLFFYPLDFTFVCPTEIVAFSDKANEFHDVNCEVVAVSVDSHFSHLAWINTPRKNGGLGHMNIALLSDLTKQISRDYGVLLEGSGLALRGLFIIDPNGVIKHLSVNDLPVGRSVEETLRLVKAFQYVETHGEVCPANWTPDSPTIKPSPAASKEYFQKVNQ
notes: peroxiredoxin 3, human, endogenous in Raji and Ramos cells; source: endogenous, Raji and Ramos cells
Take B8: the “stoichiometry N” value in data set [1] turned out to be 2.

These data come from article PMC4811492, “Dimeric peroxiredoxins are druggable targets in human Burkitt lymphoma” (Oncotarget, 2015).
